The values that follow come from patent US20200407445A1 (ITEOS THERAPEUTICS, published 2020).

Positions count from the first letter of the chain named.

One assay deals with T1, Human TIGIT-Fc (human, UniProt Q495A1 22-141).
T1 construct: bought (Creative Biomart); also called TIGIT-Fc antigen; TIGIT-Fc fusion antigen; not shown: Fc part
T1 sequence (looked up): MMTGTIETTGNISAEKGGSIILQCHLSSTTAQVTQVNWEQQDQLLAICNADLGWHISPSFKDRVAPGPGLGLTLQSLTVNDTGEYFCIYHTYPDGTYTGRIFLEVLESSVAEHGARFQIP
Kind of assay: ForteBio BLI, IgG KD, avid. On the procedure:
Briefly, ForteBio affinity measurements were performed by loading IgGs on-line onto AHQ sensors. Sensors were equilibrated off-line in assay buffer for 30 min and then monitored on-line for 60 seconds for baseline establishment. Sensors with loaded IgGs were exposed to 100 nM antigen (human TIGIT-Fc, human TIGIT-His or cyno TIGIT-Fc) for 5 minutes, afterwards they were transferred to assay buffer for 5 min for off-rate measurement. Kinetics were analyzed using the 1:1 binding model.

The target in assay [1] is T2, human TIGIT expressed on cells (human, UniProt Q495A1 22-244).
T2 construct: whole, on cells; on Jurkat E6.1 cells transduced with human TIGIT, on Promega TIGIT Effector cells or on human primary T cells; the assay field says which; also called hTIGIT; Jurkat-hTIGIT
T2 sequence (looked up): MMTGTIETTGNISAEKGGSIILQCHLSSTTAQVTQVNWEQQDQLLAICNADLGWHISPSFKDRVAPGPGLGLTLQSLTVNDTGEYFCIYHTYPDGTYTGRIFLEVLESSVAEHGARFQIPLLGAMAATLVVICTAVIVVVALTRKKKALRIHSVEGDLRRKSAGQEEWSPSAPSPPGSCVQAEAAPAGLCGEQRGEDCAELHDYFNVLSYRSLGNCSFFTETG
Kind of assay: flow cytometry, competition with CD155-His (5 ug/ml) on Jurkat-hTIGIT. For orientation: A flow cytometer gives signals particle by particle.

Assay [2] deals with T3, Human TIGIT-His (human, UniProt Q495A1 22-141, biotinylated in the ForteBio Fab assay).
T3 construct: bought (Creative Biomart); also called Biotinylated Human TIGIT HIS; TIGIT-His monomer; not shown: His tag
T3 sequence (looked up): T1 sequence (looked up)
Kind of assay: Biacore 8K, IgG on CM5 chip, human TIGIT-HIS in solution. On the procedure: (§1) Biosensor analysis was conducted at 25° C. in a HBS-EP buffer system (10 mM HEPES pH 7.3, 150 mM NaCl, 3 mM EDTA, 0.05% Surfactant P20) using a Biacore 8K optical biosensor docked with a CMS sensor chip (GE Healthcare, Marlboro, Mass.). The sample hotel was maintained at 8° C. […] This surface type provided a format for reproducibly capturing fresh analysis antibody after each regeneration step. Flow cell 2 was used to analyze captured antibody (60-90 RU) while flow cell 1 was used as a reference flow cell. […] Each of the antigen sample concentrations were run as a single replicate. Two blank (buffer) injections also were run and used to assess and subtract system artefacts. The association (300 s) and dissociation (600 s) phases for all antigen concentrations were performed at a flow rate of 30 uL/min. The surface was regenerated with three sequential injections (15 s, 15 s and 60 s) of 10 mM glycine, pH 1.5 at a flow rate of 30 uL/min. The data was aligned, double referenced, and fit to a 1:1 binding model using Biacore 8K Evaluation Software, version 1.0.

The target of assay [3] is T2, human TIGIT expressed on cells. As to the kind of experiment: cell-based or functional assay.
Assay [4] deals with T3, Human TIGIT-His. As to the kind of experiment: MSD-SET, monovalent (Fab or mAb titrated, not said which). As to the method:
(§2) Briefly, solution equilibrium titrations (SET) were performed in PBS+0.1% IgG-Free BSA (PBSF) with antigen (TIGIT-His monomer) held constant at 10-100 pM and incubated with 3- to 5-fold serial dilutions of Fab or mAbs starting at 10 pM-10 nM. Antibodies (20 nM in PBS) were coated onto standard bind MSD-ECL plates overnight at 4° C. or at room temperature for 30 min. Plates were then blocked by BSA for 30 min with shaking at 700 rpm, followed by three washes with wash buffer (PBSF+0.05% Tween 20). SET samples were applied and incubated on the plates for 150s with shaking at 700 rpm followed by one wash. Antigen captured on a plate was detected with 250 ng/mL sulfotag-labeled streptavidin in PBSF by incubation on the plate for 3 min. The plates were washed three times with wash buffer and then read on the MSD Sector Imager 2400 instrument using 1× Read Buffer T with surfactant. The percent free antigen was plotted as a function of titrated antibody in Prism and fit to a quadratic equation to extract the KD. To improve throughput, liquid handling robots were used throughout MSD-SET experiments, including SET sample preparation.

For assay [5], the target named is T3, Human TIGIT-His. As to the kind of experiment: Biacore, IgG captured, TIGIT-His in solution. As to the method: as §1
For assay [6], the target named is T2, human TIGIT expressed on cells. Kind of assay: flow cytometry, 100 nM Ab, Jurkat-hTIGIT vs untransfected. On the procedure: (§3) Antibodies were incubated with the cells for 20 min at 4° C. in FACS buffer. […] Geometric mean fluorecence intensity was analysed using LSR BD Fortessa. Cell binding was recorded as the median florescence intensity of PE on the transfected line compared to the un-transfected line for each antibody (Table 3).

The target is the same in assay [7]. Kind of assay: cell-based or functional assay. This is another data set of the same source.
Assay [8] has as its target T3, Human TIGIT-His. As to the kind of experiment: MSD-SET, monovalent (Fab or mAb titrated, not said which). As to the method: as §2
The source holds these as a separate data set.

The target of assay [9] is T4, mouse TIGIT expressed on cells (mouse, UniProt P86176 29-249).
T4 construct: whole, on cells; on Jurkat cells engineered to express mouse TIGIT; also called mTIGIT; Jurkat-mTIGIT
T4 sequence (looked up): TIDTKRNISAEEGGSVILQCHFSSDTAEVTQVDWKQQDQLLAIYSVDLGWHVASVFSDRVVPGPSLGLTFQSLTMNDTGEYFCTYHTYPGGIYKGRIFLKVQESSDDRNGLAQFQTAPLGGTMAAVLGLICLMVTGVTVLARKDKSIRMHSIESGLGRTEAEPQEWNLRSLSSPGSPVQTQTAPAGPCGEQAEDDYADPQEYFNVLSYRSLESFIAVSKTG
As to the kind of experiment: flow cytometry, 100 nM Ab, Jurkat-mTIGIT vs untransfected. On the procedure: as §3

Assay [10] has as its target T2, human TIGIT expressed on cells. Kind of assay: flow cytometry on Jurkat-hTIGIT, FIG. 9. As to the method:
as §3

In assay [11] the target is T5, cynomolgus TIGIT on primary CD8+ T cells (Macaca fascicularis (cynomolgus), UniProt A0A7N9I9V4 89-312).
T5 construct: whole, on cells
Kind of assay: flow cytometry, cynomolgus CD69+CD8+ T cells, FIG. 11. As to the method: Isolated PBMCs from Macaca fascicularis were obtained from BioPRIM. Cells were thawed and stimulated using the T cell activation/expansion kit for non-human primate (Miltenyi Biotec) at 1:2 (bead:cell ratio) following the manufacturer's specifications. The next day, cells were collected, counted and distributed at 5×10^4 cells per well. […] Then, cells were washed and incubated with the following antibodies and LVD mix for data illustrated in FIGS. 11A and 11B: anti-CD4-PercP-Cy5.5 (clone A161A1, BioLegend 357414); anti-CD8-BV510 (clone SK1, BD Bioscience 563919), CD69-APC-Cy7 (Clone FN50, BioLegend, 310914) and LVD efluor 520 (eBioscience 65-0867-14). Stained cells were analysed by FACS using BD LSR Fortessa. The EC50 value of binding was calculated using the % of positive TIGIT stained cells gated on LVD-CD69+CD8+ T cells.

Assay [12] concerns the target T2, human TIGIT expressed on cells. Kind of assay: flow cytometry, total human primary CD8+ T cells, % TIGIT stained cells, FIG. 10A.

T5 sequence (A0A7N9I9V4 entry or part of it): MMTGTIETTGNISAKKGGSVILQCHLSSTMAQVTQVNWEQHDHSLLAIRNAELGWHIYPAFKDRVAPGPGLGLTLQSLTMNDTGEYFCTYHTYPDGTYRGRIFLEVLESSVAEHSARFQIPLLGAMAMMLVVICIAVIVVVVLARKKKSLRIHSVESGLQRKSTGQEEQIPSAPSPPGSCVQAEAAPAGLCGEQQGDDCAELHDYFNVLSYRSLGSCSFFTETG

B1: anti-TIGIT antibody clone 29494 (IgG) (antibody, V domains shown)
VH: QVQLQESGPGLVKPSETLSLTCTVSGGSISSGSYYLAWIRQPPGKGLEWIGSIFRSGSTYYNPSLESRVTISVDTSKNQFSLKLSSVTAADTAVYYCAIEGANFKDFGYVAFDIWGQGTMVTVSS
VL: EIVMTQSPATLSVSPGERATLSCRASQSVSSNLAWYQQKPGQAPRLLIYGASTRATGIPARFSGSGSGTEFTLTISSLQSEDFAVYYCQQSPPWPRTFGGGTKVEIK
As for B1, the Kd with Human TIGIT-Fc was 0.376 nM; in the assay with Human TIGIT-His [2], 0.27 nM; with Human TIGIT-His [4], 0.07 nM; in the assay with Human TIGIT-His [5], 0.27 nM; in the assay with Human TIGIT-His [8] it was 0.07 nM. This molecule registered a 50% inhibitory concentration (IC50) in [1] of 0.07 nM. Further, the “Induction over Isotype control (fold change), luciferase, Jurkat-hTIGIT + CHO-TCR-CD155, 133 nM” value in assay [3] was 3.42 fold. Besides, the “FON (Fold Over Negative)” value stood at 164 fold in [6] and 511 fold in assay [9]. Moreover, the “EC50 for increase in IFNg secretion by human primary CD8 T cells, FIG. 13B” value (shortened to “EC50 for increase in IFNg secretion”) in [7] amounted to 6.1 nM. Also, the “EC50 of Jurkat-hTIGIT cell activation (luciferase), FIG. 12B” value (shortened to “EC50 of Jurkat-hTIGIT cell activation”) in [7] came to 4.4 nM. Besides, the “increase of IFNg secretion over isotype control, human primary CD8+ T cells + CHO-TCR-CD155” value (“increase of IFNg secretion” for short) in assay [7] turned out to be 5.8 fold. In assay [10], this molecule came in with a 50% effective concentration (EC50) of 0.07 nM.

B2: anti-TIGIT antibody clone 31288 (IgG) (antibody, V domains shown)
VH: B1 VH with V2L, M120T
VL: B1 VL
notes: human IgG
Consider B2, for which the Kd in the assay with Human TIGIT-His [2] and with Human TIGIT-His [5] was 0.192 nM in each case.

B3: anti-TIGIT antibody clone 29520 (IgG) (antibody, V domains shown)
VH: QVQLVESGGGLVQPGRSLRLSCAASGFTFRDYAMHWVRQAPGKGLEWVSGITWNSGLIGYADSVKGRFTISRDNAKNSLYLQMNSLRAEDTALYYCAKPVPRLRGLDVWGQGTMVTVSS
VL: DIQLTQSPSSVSASVGDRVTITCRASQGISSWLAWYQQKPGKAPKLLIYGASSLQSGVPSRFSGSGSGTDFTLTISSLQPEDFATYYCQQAFYLPWTFGGGTKVEIK
Turning to B3, the Kd with Human TIGIT-Fc was determined as 0.384 nM; with Human TIGIT-His [2] it was 0.716 nM; with Human TIGIT-His [4] it was 0.21 nM; with Human TIGIT-His [5] it was 0.716 nM; with Human TIGIT-His [8] it was 0.21 nM. In assay [1], this molecule showed an IC50 of 0.102 nM. The “Induction over Isotype control (fold change), luciferase, Jurkat-hTIGIT + CHO-TCR-CD155, 133 nM” value in assay [3] was 2.52 fold. Also, the entries for the “FON (Fold Over Negative)” value in assay [6] and in assay [9] were 166 fold and 535 fold, respectively. In addition, the “EC50 for increase in IFNg secretion” value in assay [7] is 11.1 nM. In addition, the “EC50 of Jurkat-hTIGIT cell activation” value in [7] turned out to be 2.3 nM. The “increase of IFNg secretion” value in assay [7] amounted to 5.4 fold. The EC50 in assay [11] worked out at 1.73 nM; in assay [10], 0.119 nM; in [12] it was 0.181 nM.

B4: anti-TIGIT antibody clone 29527 (IgG) (antibody, V domains shown)
VH: QVQLVESGGGVVQPGRSLRLSCAASGFTFSSSYMHWVRQAPGKGLEWVAVIGADGSNKYYADSVEGRFTISRDNSKNTLYLQMNSLRAEDTALYYCAKPVPRRRGLDVWGQGTMVTVSS
VL: B3 VL
Take B4: the Kd in the assay with Human TIGIT-Fc was 0.35 nM; with Human TIGIT-His [2] it was 1.2 nM; in the assay with Human TIGIT-His [4] it was 0.64 nM; in the assay with Human TIGIT-His [8], 0.64 nM. This molecule also displayed a 50% inhibitory concentration (IC50) in [1] of 0.078 nM. In assay [3], the “Induction over Isotype control (fold change), luciferase, Jurkat-hTIGIT + CHO-TCR-CD155, 133 nM” value came to 2.96 fold. Besides, the “FON (Fold Over Negative)” value in assay [6] is 142 fold; in [9], 414 fold. Further, the “EC50 for increase in IFNg secretion” value in [7] came to 5.1 nM. In assay [7], the “EC50 of Jurkat-hTIGIT cell activation” value was determined as 32 nM. Besides, in assay [7], the “increase of IFNg secretion” value is 4.5 fold. Moreover, the EC50 is 0.378 nM in [11], 0.05 nM in assay [10] and 0.253 nM in [12].

One may read the Kd as the constant that tells how readily two partners part at equilibrium. A lower Kd goes with a tighter complex. In general, IC50 refers to the point on the concentration scale where inhibition reaches its midpoint. One may read the EC50 as the concentration that produces a half-maximal response. A lower EC50 goes with an effect from little substance.
